# Test results taken from US20200190159A1.
# Assays:
# [1] = target: recombinant tetranectin (TN) (human) (UniProt P05452); test: SPR (BIAcore), TN immobilized on CM5 chip, HMGB1 as analyte at various concentrations; apparent Kd
# [2] = target: recombinant tetranectin (TN) (human) (UniProt P05452); test: BIAcore SPR; recombinant TN immobilized on the sensor chip, HMGB1 as analyte at 31, 62, 125, 250, 500 and 1000 nM
# Sequence of recombinant tetranectin (TN) (human) (P05452 22-202): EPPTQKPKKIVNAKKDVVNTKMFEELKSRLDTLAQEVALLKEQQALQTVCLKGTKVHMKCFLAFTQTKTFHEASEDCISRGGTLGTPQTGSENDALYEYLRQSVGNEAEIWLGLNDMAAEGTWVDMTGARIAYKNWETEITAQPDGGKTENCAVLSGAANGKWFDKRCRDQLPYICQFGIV
substance,measurement,setting,value
high mobility group box-1 (HMGB1) protein,Kd,[1],570 nM
same,Kd,[2],520 nM
